B2: OtDUBGEF (residues 548-759), His-tagged construct (domain or fragment)
chain: ERLVKKVTSNLETELKFFKGRLVQELMQIVKNENGRIDHTSKNWQESASVLLNSQEKGAVSLAEVERAVSKMTQKLRDQKVSEEEVVNIESKLKFERASLEAKLFDDNEIKELINKRIKEDALRAIPFLGSDSESFMEKISPFVKLPDDSYSLLKANDKHHPFQNILYSNALKFFADSSDIGYLNDDSLKNLTPENLNAFEQAVAADIDKLM
notes: source: E. coli BL21(DE3), purified (Ni-NTA, Superdex 75)

Key:
[1] = molecular target: B2; assay: ITC; details: both partners purified
[2] = molecular target: T1, Rac1 (residues 1-177), recombinant (human, UniProt P63000 1-177); assay: ITC; details: both partners purified
[3] = molecular target: T1, Rac1 (residues 1-177), recombinant; assay: cell-based or functional assay
[4] = molecular target: T1, Rac1 (residues 1-177), recombinant; assay: pull-down; GST-tagged OtDUB fragments (20 μM) as bait and Rac1 (60 µM) as prey, 50 mM Tris-HCl pH 7.5, 150 mM NaCl, 0.1 mM TCEP, glutathione resin 1 h at 4°C; Coomassie; details: both partners purified

B1: Cdc42 (residues 1-177), recombinant (domain or fragment)
chain: not shown
B1 was tested, and the Kd [1] was about 16 µM.

For B2, the Kd [2] was about 5 µM and the “kcat/KM of BODIPY-GDP dissociation from Rac1 with increasing amounts of OtDUBGEF” value [3] was 260000 M⁻¹ s⁻¹.

B3: GST-OtDUBGEF N590A/E593A (domain or fragment)
chain: ERLVKKVTSNLETELKFFKGRLVQELMQIVKNENGRIDHTSKAWQASASVLLNSQEKGAVSLAEVERAVSKMTQKLRDQKVSEEEVVNIESKLKFERASLEAKLFDDNEIKELINKRIKEDALRAIPFLGSDSESFMEKISPFVKLPDDSYSLLKANDKHHPFQNILYSNALKFFADSSDIGYLNDDSLKNLTPENLNAFEQAVAADIDKLM
notes: OtDUB (ORF OTT_1962), Orientia tsutsugamushi Ikeda isolate; also called switch II (N590A/E593A) mutant; source: E. coli Rosetta DE3, purified (glutathione resin)
B3: binds [4].

B4: GST-OtDUBGEF E561A (domain or fragment)
chain: ERLVKKVTSNLETALKFFKGRLVQELMQIVKNENGRIDHTSKNWQESASVLLNSQEKGAVSLAEVERAVSKMTQKLRDQKVSEEEVVNIESKLKFERASLEAKLFDDNEIKELINKRIKEDALRAIPFLGSDSESFMEKISPFVKLPDDSYSLLKANDKHHPFQNILYSNALKFFADSSDIGYLNDDSLKNLTPENLNAFEQAVAADIDKLM
notes: OtDUB (ORF OTT_1962), Orientia tsutsugamushi Ikeda isolate; also called switch I (E561A) mutant; source: E. coli Rosetta DE3, purified (glutathione resin)
B4: binds [4].

B5: GST-OtDUB C-terminal truncation (275-913) (domain or fragment)
chain: SAEVSSKEELYVPKINQVEESLEAQLKYINEHIASQLMQIVKNSNGEIDCNSSNFQEEVSSLLNSRSKETTSLATIEQNFNEIIQQLRKEKVNEERVSAIELQLKANRAVLEAKLSNTEDVKSLVNQKIKEETLQAIPFFGNAAERANFKKHLAHFVKLPDNSYSLLKQKEKRHPFCNIIGANAVKFFSPQSNAVYLNTSAYNQITSGNLKAFEAAVTTDINNLMLKEAAVTIDAVSPNKEAVESGKDLSKTDELAELKEVKSNLETELKILKERLVKKVTSNLETELKFFKGRLVQELMQIVKNENGRIDHTSKNWQESASVLLNSQEKGAVSLAEVERAVSKMTQKLRDQKVSEEEVVNIESKLKFERASLEAKLFDDNEIKELINKRIKEDALRAIPFLGSDSESFMEKISPFVKLPDDSYSLLKANDKHHPFQNILYSNALKFFADSSDIGYLNDDSLKNLTPENLNAFEQAVAADIDKLMSRDVTLNVSDLKSYVANSPNPDLIADYLALEWQIHTPGLKGLYDDLQASHQLQLNELENKHAKQLLSDLANLSKLPSMRGILPEFKDEFYNEIDKKPEERSVEYKNFINKCSELPDAMLQPAKCSAQALLEFNKYERDLNSFKQGVFCAIDNYK
notes: OtDUB (ORF OTT_1962), Orientia tsutsugamushi Ikeda isolate; pGEX6P1 construct; source: E. coli Rosetta DE3, purified (glutathione resin)
B5: binds [4].

— doi:10.1101/2020.06.04.133876 (bioRxiv, 2020)
